Drawing on PMC11962161, this text covers stoichiometry N for two substances.

For test [1], the target named is FCA-mScarlet-I (Arabidopsis thaliana). Nature of the test: single-particle tracking with stepwise photobleaching (SlimVar microscopy); fluorescent FCA fusions in nuclei of living Arabidopsis root tissue, 10 ms/frame; molecules per tracked particle from initial intensity over single-molecule brightness; control and sof78 backgrounds for FCA-eGFP.
Test [2] deals with MBP-PrLD (purified recombinant FCA C-terminal half containing prion-like domains) (Arabidopsis). Briefly: SEC-MALS; Superdex-200 10/300 GL, 40 mM Tris-HCl pH 7.4, 500 mM NaCl; protein at 2 mg/mL; self-association. (In general: Size exclusion chromatography separates by hydrodynamic size, large species first.)

Where only a bound is given, the exact number is not on record here.

A word on the stoichiometry N: it is the number of molecules, sites or subunits per partner or assembly. The substance FCA-mScarlet-I (natural protein) registered a stoichiometry N in test [1] of 4 molecules. As for “MBP-PrLD (purified recombinant FCA C-terminal half containing prion-like domains) (domain or fragment)”, in test [2], the stoichiometry N was more than 100 molecules.
